The supplement of paper PMC5998384

Assays:
HeLa Kyoto [1] = assay: solubility in G1/S (NP-40 vs SDS abundance) (log2 ratio); higher = more soluble; conditions: cell cycle stage: G1/S
HeLa Kyoto [2] = assay: solubility change mitosis vs G1/S (difference of NP-40 vs SDS log2 ratios) (log2 ratio difference); higher = more soluble in mitosis
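Throughout, for solubility change mitosis vs G1/S (difference of NP-40 vs SDS log2 ratios): synchronized HeLa Kyoto cells (double thymidine block for G1/S, nocodazole release for mitosis), protein amounts in NP-40 versus SDS lysates quantified by mass spectrometry, three biological replicates.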
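Throughout, for solubility in G1/S (NP-40 vs SDS abundance): HeLa Kyoto cells arrested at G1/S by double thymidine block, proteins quantified by TMT10plex mass spectrometry in mild NP-40 versus SDS extracts, three biological replicates.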

| Sequence | solubility in G1/S (log2) (HeLa Kyoto [1]) | solubility change mitosis (log2) (HeLa Kyoto [2]) |
| --- | --- | --- |
| MMQGNTCHRMSFHPGRGCPRGRGGHGARPSAPSFRPQNLRLLHPQQPPVQYQYEPPSAPSTTFSNSPAPNFLPPRPDFVPFPPPMPPSAQGPLPPCPIRPPFPNHQMRHPFPVPPCFPPMPPPMPCPNNPPVPGAPPGQGTFPFMMPPPSMPHPPPPPVMPQQVNYQYPPGYSHHNFPPPSFNSFQNNPSSFLPSANNSSSPHFRHLPPYPLPKAPSERRSPERLKHYDDHRHRDHSHGRGERHRSLDRRERGRSPDRRRQDSRYRSDYDRGRTPSRHRSYERSRERERERHRHRDNRRSPSLERSYKKEYKRSGRSYGLSVVPEPAGCTPELPGEIIKNTDSWAPPLEIVNHRSPSREKKRARWEEEKDRWSDNQSSGKDKNYTSIKEKEPEETMPDKNEEEEEELLKPVWIRCTHSENYYSSDPMDQVGDSTVVGTSRLRDLYDKFEEELGSRQEKAKAARPPWEPPKTKLDEDLESSSESECESDEDSTCSSSSDSEVFDVIAEIKRKKAHPDRLHDELWYNDPGQMNDGPLCKCSAKARRTGIRHSIYPGEEAIKPCRPMTNNAGRLFHYRITVSPPTNFLTDRPTVIEYDDHEYIFEGFSMFAHAPLTNIPLCKVIRFNIDYTIHFIEEMMPENFCVKGLELFSLFLFRDILELYDWNLKGPLFEDSPPCCPRFHFMPRFVRFLPDGGKEVLSMHQILLYLLRCSKALVPEEEIANMLQWEELEWQKYAEECKGMIVTNPGTKPSSVRIDQLDREQFNPDVITFPIIVHFGIRPAQLSYAGDPQYQKLWKSYVKLRHLLANSPKVKQTDKQKLAQREEALQKIRQKNTMRREVTVELSSQGFWKTGIRSDVCQHAMMLPVLTHHIRYHQCLMHLDKLIGYTFQDRCLLQLAMTHPSHHLNFGMNPDHARNSLSNCGIRQPKYGDRKVHHMHMRKKGINTLINIMSRLGQDDPTPSRINHNERLEFLGDAVVEFLTSVHLYYLFPSLEEGGLATYRTAIVQNQHLAMLAKKLELDRFMLYAHGPDLCRESDLRHAMANCFEALIGAVYLEGSLEEAKQLFGRLLFNDPDLREVWLNYPLHPLQLQEPNTDRQLIETSPVLQKLTEFEEAIGVIFTHVRLLARAFTLRTVGFNHLTLGHNQRMEFLGDSIMQLVATEYLFIHFPDHHEGHLTLLRSSLVNNRTQAKVAEELGMQEYAITNDKTKRPVALRTKTLADLLESFIAALYIDKDLEYVHTFMNVCFFPRLKEFILNQDWNDPKSQLQQCCLTLRTEGKEPDIPLYKTLQTVGPSHARTYTVAVYFKGERIGCGKGPSIQQAEMGAAMDALEKYNFPQMAHQKRFIERKYRQELKEMRWEREHQEREPDETEDIKK [DROSHA] | -0.744 | 0.203 |
| MNALLEQKEQQERLREAAALGDIREVQKLVESGVDVNSQNEVNGWTCLHWACKRNHGQVVSYLLKSGADKEILTTKGEMPVQLTSRREIRKIMGVEEEDDDDDDDDNLPQLKKESELPFVPNYLANPAFPFIYTPTAEDSAQMQNGGPSTPPASPPADGSPPLLPPGEPPLLGTFPRDHTSLALVQNGDVSAPSAILRTPESTKPGPVCQPPVSQSRSLFSSVPSKPPMSLEPQNGTYAGPAPAFQPFFFTGAFPFNMQELVLKVRIQNPSLRENDFIEIELDRQELTYQELLRVCCCELGVNPDQVEKIRKLPNTLLRKDKDVARLQDFQELELVLMISENNFLFRNAASTLTERPCYNRRASKLTY [ANKRD40] | -0.0058 | -0.00743 |
| MNFEGLDPGLAEYAPAMHSALDPVLDAHLNPSLLQNVELDPEGVALEALPVQESVHIMEGVYSELHSVVAEVGVPVSVSHFDLHEEMLWVGSHGGHATSFFGPALERYSSFQVNGSDDIRQIQSLENGILFLTKNNLKYMARGGLIIFDYLLDENEDMHSLLLTDSSTLLVGGLQNHIIEIDLNTVQETQKYAVETPGVTIMRQTNRFFFCGHTSGKVSLRDLRTFKVEHEFDAFSGSLSDFDVHGNLLAACGFSSRLTGLACDRFLKVYDLRMMRAITPLQVHVDPAFLRFIPTYTSRLAIISQSGQCQFCEPTGLANPADIFHVNPVGPLLMTFDVSASKQALAFGDSEGCVHLWTDSPEPSFNPYSRETEFALPCLVDSLPPLDWSQDLLPLSLIPVPLTTDTLLSDWPAANSAPAPRRAPPVDAEILRTMKKVGFIGYAPNPRTRLRNQIPYRLKESDSEFDSFSQVTESPVGREEEPHLHMVSKKYRKVTIKYSKLGLEDFDFKHYNKTLFAGLEPHIPNAYCNCMIQVLYFLEPVRCLIQNHLCQKEFCLACELGFLFHMLDLSRGDPCQGNNFLRAFRTIPEASALGLILADSDEASGKGNLARLIQRWNRFILTQLHQDMQELEIPQAYRGAGGSSFCSSGDSVIGQLFSCEMENCSLCRCGSETVRASSTLLFTLSYPDGSKSDKTGKNYDFAQVLKRSICLDQNTQAWCDTCEKYQPTIQTRNIRHLPDILVINCEVNSSKEADFWRMQAEVAFKMAVKKHGGEISKNKEFALADWKELGSPEGVLVCPSIEELKNVWLPFSIRMKMTKNKGLDVCNWTDGDEMQWGPARAEEEHGVYVYDLMATVVHILDSRTGGSLVAHIKVGETYHQRKEGVTHQQWYLFNDFLIEPIDKHEAVQFDMNWKVPAILYYVKRNLNSRYNLNIKNPIEASVLLAEASLARKQRKTHTTFIPLMLNEMPQIGDLVGLDAEFVTLNEEEAELRSDGTKSTIKPSQMSVARITCVRGQGPNEGIPFIDDYISTQEQVVDYLTQYSGIKPGDLDAKISSKHLTTLKSTYLKLRFLIDIGVKFVGHGLQKDFRVINLMVPKDQVLDTVYLFHMPRKRMISLRFLAWYFLDLKIQGETHDSIEDARTALQLYRKYLELSKNGTEPESFHKVLKGLYEKGRKMDWKVPEPEGQTSPKNAAVFSSVLAL [PAN2] | -0.18 | 0.206 |
| MNGPADGEVDYKKKYRNLKRKLKFLIYEHECFQEELRKAQRKLLKVSRDKSFLLDRLLQYENVDEDSSDSDATASSDNSETEGTPKLSDTPAPKRKRSPPLGGAPSPSSLSLPPSTGFPLQASGVPSPYLSSLASSRYPPFPSDYLALQLPEPSPLRPKREKRPRLPRKLKMAVGPPDCPVGGPLTFPGRGSGAGVGTTLTPLPPPKMPPPTILSTVPRQMFSDAGSGDDALDGDDDLVIDIPE [INO80E] | 0.135 | 0.288 |
| MNGTRNWCTLVDVHPEDQAAGSVDILRLTLQGELTGDELEHIAQKAGRKTYAMVSSHSAGHSLASELVESHDGHEEIIKVYLKGRSGDKMIHEKNINQLKSEVQYIQEARNCLQKLREDISSKLDRNLGDSLHRQEIQVVLEKPNGFSQSPTALYSSPPEVDTCINEDVESLRKTVQDLLAKLQEAKRQHQSDCVAFEVTLSRYQREAEQSNVALQREEDRVEQKEAEVGELQRRLLGMETEHQALLAKVREGEVALEELRSNNADCQAEREKAATLEKEVAGLREKIHHLDDMLKSQQRKVRQMIEQLQNSKAVIQSKDATIQELKEKIAYLEAENLEMHDRMEHLIEKQISHGNFSTQARAKTENPGSIRISKPPSPKPMPVIRVVET [TUFT1] | 0.415 | 0.112 |
| MNQFGPSALINLSNFSSIKPEPASTPPQGSMANSTAVVKIPGTPGAGGRLSPENNQVLTKKKLQDLVREVDPNEQLDEDVEEMLLQIADDFIESVVTAACQLARHRKSSTLEVKDVQLHLERQWNMWIPGFGSEEIRPYKKACTTEAHKQRMALIRKTTKK [TAF12] | -0.0469 | 0.151 |
| MNRVLCAPAAGAVRALRLIGWASRSLHPLPGSRDRAHPAAEEEDDPDRPIEFSSSKANPHRWSVGHTMGKGHQRPWWKVLPLSCFLVALIIWCYLREESEADQWLRQVWGEVPEPSDRSEEPETPAAYRART [CCSMST1] | -0.299 | 0.566 |
| MPDQALQQMLDRSCWVCFATDEDDRTAEWVRPCRCRGSTKWVHQACLQRWVDEKQRGNSTARVACPQCNAEYLIVFPKLGPVVYVLDLADRLISKACPFAAAGIMVGSIYWTAVTYGAVTVMQVVGHKEGLDVMERADPLFLLIGLPTIPVMLILGKMIRWEDYVLRLWRKYSNKLQILNSIFPGIGCPVPRIPAEANPLADHVSATRILCGALVFPTIATIVGKLMFSSVNSNLQRTILGGIAFVAIKGAFKVYFKQQQYLRQAHRKILNYPEQEEA [MARCH5] | -0.272 | 0.0312 |
| MPGAGARAEEGGGGGEGAAQGAAAEPGAGPAREPARLCGYLQKLSGKGPLRGYRSRWFVFDARRCYLYYFKSPQDALPLGHLDIADACFSYQGPDEAAEPGTEPPAHFQVHSAGAVTVLKAPNRQLMTYWLQELQQKRWEYCNSLDMVKWDSRTSPTPGDFPKGLVARDNTDLIYPHPNASAEKARNVLAVETVPGELVGEQAANQPAPGHPNSINFYSLKQWGNELKNSMSSFRPGRGHNDSRRTVFYTNEEWELLDPTPKDLEESIVQEEKKKLTPEGNKGVTGSGFPFDFGRNPYKGKRPLKDIIGSYKNRHSSGDPSSEGTSGSGSVSIRKPASEMQLQVQSQQEELEQLKKDLSSQKELVRLLQQTVRSSQYDKYFTSSRLCEGVPKDTLELLHQKDDQILGLTSQLERFSLEKESLQQEVRTLKSKVGELNEQLGMLMETIQAKDEVIIKLSEGEGNGPPPTVAPSSPSVVPVARDQLELDRLKDNLQGYKTQNKFLNKEILELSALRRNAERRERDLMAKYSSLEAKLCQIESKYLILLQEMKTPVCSEDQGPTREVIAQLLEDALQVESQEQPEQAFVKPHLVSEYDIYGFRTVPEDDEEEKLVAKVRALDLKTLYLTENQEVSTGVKWENYFASTVNREMMCSPELKNLIRAGIPHEHRSKVWKWCVDRHTRKFKDNTEPGHFQTLLQKALEKQNPASKQIELDLLRTLPNNKHYSCPTSEGIQKLRNVLLAFSWRNPDIGYCQGLNRLVAVALLYLEQEDAFWCLVTIVEVFMPRDYYTKTLLGSQVDQRVFRDLMSEKLPRLHGHFEQYKVDYTLITFNWFLVVFVDSVVSDILFKIWDSFLYEGPKVIFRFALALFKYKEEEILKLQDSMSIFKYLRYFTRTILDARKLISISFGDLNPFPLRQIRNRRAYHLEKVRLELTELEAIREDFLRERDTSPDKGELVSDEEEDT [TBC1D2B] | -0.186 | -0.0456 |
